The values below come from patent US20180169261A1 (Seagen, published 2018).

The EC50 is the concentration giving half of the maximal effect. Read a high EC50 as weaker potency.

For test [1], the target named is T1, human CD123 (human, UniProt P26951 19-378). In words: cell-based or functional assay.
Test [2] has as its target T1, human CD123. Nature of the test: cell-based or functional assay. The source holds these as a separate data set.
Test [3] has as its target T1, human CD123. In words: cell-based or functional assay. The source holds these as a separate data set.
The target in test [4] is T1, human CD123. Nature of the test: competition with 5 nM AlexaFluor-488 m7G3, flow cytometry on Molm-13 AML cells. On the procedure: Cells were centrifuged, washed 3 times with PBS, and resuspended in 125 μL of a PBS+1% BSA solution. Fluorescence was analyzed using a flow cytometer, and the percent of saturated fluorescent signal was used to determine percent labeled 7G3 mAb bound. The EC50 was extrapolated by fitting the data to a sigmoidal dose-response curve with variable slope.

The target in another test is T2, cynomolgus CD123 (cynomolgus).
T2 construct: whole, on cells; Expressed on transfected HEK-293F cells; also called cyno CD123
Nature of the test: saturation binding of AlexaFluor-488 labeled mAb, flow cytometry on HEK293F cells expressing cyno CD123; apparent Kd. On the procedure: (§1) One hundred thousand CD123-positive cells (HEK-293F cells transfected to express human or cynomologus CD123) were transferred to 96-well plates. […] Cells were pelleted by centrifugation, washed 3 times with a PBS+1% BSA solution, and resuspended in 125 μL of PBS+1% BSA. Fluorescence was analyzed using a flow cytometer, and the percent of saturated fluorescent signal was used to determine percent bound and to subsequently calculate apparent Kd.

The target of test [5] is T1, human CD123. Nature of the test: saturation binding of AlexaFluor-488 labeled mAb, flow cytometry on HEK293F cells expressing human CD123; apparent Kd. As to the method:
as §1

T1 sequence (P26951 19-378): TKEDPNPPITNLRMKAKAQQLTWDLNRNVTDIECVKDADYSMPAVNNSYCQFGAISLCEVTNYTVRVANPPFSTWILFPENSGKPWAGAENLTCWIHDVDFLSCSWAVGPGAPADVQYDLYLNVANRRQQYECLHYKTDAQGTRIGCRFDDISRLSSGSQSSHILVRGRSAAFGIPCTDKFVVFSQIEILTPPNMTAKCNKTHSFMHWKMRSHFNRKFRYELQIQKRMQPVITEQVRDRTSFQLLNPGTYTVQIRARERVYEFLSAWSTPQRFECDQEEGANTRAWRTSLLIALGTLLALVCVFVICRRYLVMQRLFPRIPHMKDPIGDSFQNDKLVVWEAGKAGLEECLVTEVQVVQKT

B1: h7G3EC-SGD-1910 (antibody, human IgG1, kappa, V domains shown)
VH: QVQLVQSGAEVKKPGASVKMSCKASGYTFTDYYMKWVKQAPGQGLEWIGDIIPSNGATFYNQKFKGKATLTVDRSISTAYMHLNRLRSDDTAVYYCTRSHLLRASWFAYWGQGTLVTVSS
VL: DFVMTQSPDSLAVSLGERATINCKSSQSLLNSGNQKNYLTWYLQKPGQPPKLLIYWASTRESGVPDRFSGSGSGTDFTLTISSLQAEDVAVYYCQNDYSYPYTFGQGTKLEIKR
modifications: SGD-1910 PBD drug-linker on the thiol of Cys 239 (EU index); average drug load about 2 per antibody
Take B1: in the test with human CD123 [1], the “IC50, in vitro cytotoxicity (Annexin V/PI flow cytometry), primary AML sample FH016” value amounted to 1.4 ng/mL; the “IC50, in vitro cytotoxicity (Annexin V/PI flow cytometry), primary AML sample FH018” value is 0.12 ng/mL; the “IC50, in vitro cytotoxicity (Annexin V/PI flow cytometry), primary AML sample FH019” value was > 2.5 ng/mL; the “IC50, in vitro cytotoxicity (Annexin V/PI flow cytometry), primary AML sample FH020” value stood at 2.5 ng/mL. Moreover, in the test with human CD123 [1], the “IC50, in vitro cytotoxicity (Annexin V/PI flow cytometry), primary AML sample FH021” value stood at 1.6 ng/mL; the “IC50, in vitro cytotoxicity (Annexin V/PI flow cytometry), primary AML sample FH022” value worked out at 0.56 ng/mL; the “IC50, in vitro cytotoxicity (Annexin V/PI flow cytometry), primary AML sample FH023” value was found to be 0.06 ng/mL; the “IC50, in vitro cytotoxicity (Annexin V/PI flow cytometry), primary AML sample FH024” value came to 2 ng/mL. Further, in the test with human CD123 [1], the “IC50, in vitro cytotoxicity (Annexin V/PI flow cytometry), primary AML sample FH025” value was 6.5 ng/mL; the “IC50, in vitro cytotoxicity (Annexin V/PI flow cytometry), primary AML sample FH026” value was 0.22 ng/mL; the “IC50, in vitro cytotoxicity (Annexin V/PI flow cytometry), primary AML sample FH027” value was > 2.5 ng/mL; the “IC50, in vitro cytotoxicity (Annexin V/PI flow cytometry), primary AML sample FH028” value came out at 2 ng/mL. Also, in the test with human CD123 [1], the “IC50, in vitro cytotoxicity (Annexin V/PI flow cytometry), primary AML sample FH029” value turned out to be 0.46 ng/mL; the “IC50, in vitro cytotoxicity (Annexin V/PI flow cytometry), primary AML sample FH034” value was found to be 0.22 ng/mL; the “IC50, in vitro cytotoxicity (Annexin V/PI flow cytometry), primary AML sample FH036” value was 0.16 ng/mL; the “IC50, in vitro cytotoxicity (Annexin V/PI flow cytometry), primary AML sample FH037” value worked out at 0.68 ng/mL. The “IC50, in vitro cytotoxicity (Annexin V/PI flow cytometry), primary AML sample FH038” value with human CD123 [1] is 0.18 ng/mL. For the same molecule, in the test with human CD123 [2], the “IC50, in vitro cytotoxicity (CelltiterGlo, 96 h), GDM-1 AML cells” value turned out to be 3.5 ng/mL; the “IC50, in vitro cytotoxicity (CelltiterGlo, 96 h), HNT-34 AML cells” value was found to be 0.35 ng/mL; the “IC50, in vitro cytotoxicity (CelltiterGlo, 96 h), KG1-INV AML cells” value is 0.6 ng/mL; the “IC50, in vitro cytotoxicity (CelltiterGlo, 96 h), KG-1 AML cells” value is 0.8 ng/mL. For the same molecule, in the test with human CD123 [2], the “IC50, in vitro cytotoxicity (CelltiterGlo, 96 h), Kasumi-1 AML cells” value came to 1 ng/mL; the “IC50, in vitro cytotoxicity (CelltiterGlo, 96 h), MV4-11 AML cells” value turned out to be 0.02 ng/mL; the “IC50, in vitro cytotoxicity (CelltiterGlo, 96 h), Molm-13 AML cells” value stood at 0.08 ng/mL; the “IC50, in vitro cytotoxicity (CelltiterGlo, 96 h), NOMO-1 AML cells” value was 38 ng/mL. For the same molecule, in the test with human CD123 [2], the “IC50, in vitro cytotoxicity (CelltiterGlo, 96 h), SKM-1 AML cells” value was determined as 2.5 ng/mL; the “IC50, in vitro cytotoxicity (CelltiterGlo, 96 h), TF1a AML cells” value is > 1000 ng/mL; the “IC50, in vitro cytotoxicity (CelltiterGlo, 96 h), THP-1 AML cells” value was determined as 24 ng/mL. Moreover, in the test with human CD123 [3], the “mean IC50, in vitro cytotoxicity, responsive CD123-positive AML cell lines” value was 7 ng/mL and the “mean IC50, in vitro cytotoxicity, responsive primary AML samples” value was 1 ng/mL.

B2: HCLA (antibody, V domains shown)
VH: QVQLVQSGAEVKKPGASVKMSCKASGYTFTDYYMKWVKQAPGQGLEWIGDIIPSNGATFYNQKFKGKATLTVDRSISTAYMHLNRLRSDDTAVYYCTRSHLLRASWFAYWGQGTLVTVSS
VL: DFVMTQSPDSLAVSLGERATINCKSSQSLLNSGNQKNYLTWYLQKPGQPPKLLIYWASTRESGVPDRFSGSGSGTDFTLTISSLQAEDVAVYYCQNDYSYPYTFGQGTKLEIKR
notes: also called lead humanized 7G3 antibody; vHC/vLA
The molecule B2 registered an EC50 with human CD123 [4] of 2.6 nM.

B3: h7G3EC (antibody, human IgG1, kappa, V domains shown)
VH: QVQLVQSGAEVKKPGASVKMSCKASGYTFTDYYMKWVKQAPGQGLEWIGDIIPSNGATFYNQKFKGKATLTVDRSISTAYMHLNRLRSDDTAVYYCTRSHLLRASWFAYWGQGTLVTVSS
VL: DFVMTQSPDSLAVSLGERATINCKSSQSLLNSGNQKNYLTWYLQKPGQPPKLLIYWASTRESGVPDRFSGSGSGTDFTLTISSLQAEDVAVYYCQNDYSYPYTFGQGTKLEIKR
notes: EC means cysteine at position 239 (EU index) of the IgG1 heavy chain; Unconjugated antibody; also called humanized 7G3 with S239C
On to B3, for which the Kd in the test with cynomolgus CD123 worked out at 6.6 nM; with human CD123 [5], 2.7 nM.

B4: h7G3, G1 (antibody, V domains shown)
VH: QVQLVQSGAEVKKPGASVKMSCKASGYTFTDYYMKWVKQAPGQGLEWIGDIIPSNGATFYNQKFKGKATLTVDRSISTAYMHLNRLRSDDTAVYYCTRSHLLRASWFAYWGQGTLVTVSS
VL: DFVMTQSPDSLAVSLGERATINCKSSQSLLNSGNQKNYLTWYLQKPGQPPKLLIYWASTRESGVPDRFSGSGSGTDFTLTISSLQAEDVAVYYCQNDYSYPYTFGQGTKLEIKR
notes: also called humanized 7G3, IgG1
Turning to B4, the Kd amounted to 5.3 nM with cynomolgus CD123 and 2.7 nM with human CD123 [5].

B5: murine 7G3 antibody (antibody, V domains shown)
VH: EVQLQQSGPELVKPGASVKMSCKASGYTFTDYYMKWVKQSHGKSLEWIGDIIPSNGATFYNQKFKGKATLTVDRSSSTAYMHLNSLTSEDSAVYYCTRSHLLRASWFAYWGQGTLVTVSA
VL: DFVMTQSPSSLTVTAGEKVTMSCKSSQSLLNSGNQKNYLTWYLQKPGQPPKLLIYWASTRESGVPDRFTGSGSGTDFTLTISSVQAEDLAVYYCQNDYSYPYTFGGGTKLEIKR
notes: Murine monoclonal antibody; also called m7G3
Consider B5, for which the Kd with cynomolgus CD123 is 4.6 nM; with human CD123 [5] it was 2.7 nM. In addition, the EC50 in the test with human CD123 [4] was 4.3 nM.

B6: Chimeric 7G3 (antibody, V domains shown)
VH: EVQLQQSGPELVKPGASVKMSCKASGYTFTDYYMKWVKQSHGKSLEWIGDIIPSNGATFYNQKFKGKATLTVDRSSSTAYMHLNSLTSEDSAVYYCTRSHLLRASWFAYWGQGTLVTVSA
VL: DFVMTQSPSSLTVTAGEKVTMSCKSSQSLLNSGNQKNYLTWYLQKPGQPPKLLIYWASTRESGVPDRFTGSGSGTDFTLTISSVQAEDLAVYYCQNDYSYPYTFGGGTKLEIKR
As to B6, the results for the Kd with cynomolgus CD123 and with human CD123 [5] were 4.7 nM and 2.7 nM, respectively. The EC50 in the test with human CD123 [4] amounted to 2 nM.
